One data set concerns Hfq (Escherichia coli). Nature of the data set: EMSA. A general note: Mobility shift assays separate free from complexed probe on a gel.
The test system of data set [1] is Strep-RapZ (Escherichia coli). Nature of the data set: EMSA.

Turning to GlmY, the binding signal (fold higher Hfq needed than for GlmZ) in the data set with Hfq (Escherichia coli) was 10. Also, the Kd in data set [1] is 30 nM.

Broadly, the Kd is the constant that tells how readily two partners part at equilibrium. Read a high Kd as weaker binding.

Values taken from publication PMC4737144.
